{"source": "patent US12668636B2", "about": "“Pharmaceutical combinations” (BERLIN-CHEMIE AG, priority 2017, dated 2026)", "molecules": {"B1": {"name": "LY75_A1: anti-LY75 human monoclonal antibody; VH SEQ ID NO:1, VL SEQ ID NO:2 (antibody, listed as Homo sapiens, V domains shown)", "VH": "EVQLVESGGGLVKPGGSLRLSCAASGFTYSNAWMSWVRQAPGKGLEWVGRIKSKTDGGTTDYAAPVQGRFTISRDDSKNTLYLQMNSLKTEDTAVYYCTIFGVVSFDYWGQGTLVTVSS", "VL": "DVQMTQSPSSLSASVGDRVTITCRASQSISDYLSWYQQRPGKAPNLLIYAASNLKTGVPSRFSGSGSGTDFTLTISTLQPEDFATYYCQQSYRSPWTFGQGTKVEIKR"}}, "key": {"[1]": {"biological_target": "T1, LY75 (Homo sapiens, UniProt O60449)", "T1 construct": "from tissue; host or cells: FFPE triple negative breast cancer sections", "T1 sequence (O60449 28-1722)": "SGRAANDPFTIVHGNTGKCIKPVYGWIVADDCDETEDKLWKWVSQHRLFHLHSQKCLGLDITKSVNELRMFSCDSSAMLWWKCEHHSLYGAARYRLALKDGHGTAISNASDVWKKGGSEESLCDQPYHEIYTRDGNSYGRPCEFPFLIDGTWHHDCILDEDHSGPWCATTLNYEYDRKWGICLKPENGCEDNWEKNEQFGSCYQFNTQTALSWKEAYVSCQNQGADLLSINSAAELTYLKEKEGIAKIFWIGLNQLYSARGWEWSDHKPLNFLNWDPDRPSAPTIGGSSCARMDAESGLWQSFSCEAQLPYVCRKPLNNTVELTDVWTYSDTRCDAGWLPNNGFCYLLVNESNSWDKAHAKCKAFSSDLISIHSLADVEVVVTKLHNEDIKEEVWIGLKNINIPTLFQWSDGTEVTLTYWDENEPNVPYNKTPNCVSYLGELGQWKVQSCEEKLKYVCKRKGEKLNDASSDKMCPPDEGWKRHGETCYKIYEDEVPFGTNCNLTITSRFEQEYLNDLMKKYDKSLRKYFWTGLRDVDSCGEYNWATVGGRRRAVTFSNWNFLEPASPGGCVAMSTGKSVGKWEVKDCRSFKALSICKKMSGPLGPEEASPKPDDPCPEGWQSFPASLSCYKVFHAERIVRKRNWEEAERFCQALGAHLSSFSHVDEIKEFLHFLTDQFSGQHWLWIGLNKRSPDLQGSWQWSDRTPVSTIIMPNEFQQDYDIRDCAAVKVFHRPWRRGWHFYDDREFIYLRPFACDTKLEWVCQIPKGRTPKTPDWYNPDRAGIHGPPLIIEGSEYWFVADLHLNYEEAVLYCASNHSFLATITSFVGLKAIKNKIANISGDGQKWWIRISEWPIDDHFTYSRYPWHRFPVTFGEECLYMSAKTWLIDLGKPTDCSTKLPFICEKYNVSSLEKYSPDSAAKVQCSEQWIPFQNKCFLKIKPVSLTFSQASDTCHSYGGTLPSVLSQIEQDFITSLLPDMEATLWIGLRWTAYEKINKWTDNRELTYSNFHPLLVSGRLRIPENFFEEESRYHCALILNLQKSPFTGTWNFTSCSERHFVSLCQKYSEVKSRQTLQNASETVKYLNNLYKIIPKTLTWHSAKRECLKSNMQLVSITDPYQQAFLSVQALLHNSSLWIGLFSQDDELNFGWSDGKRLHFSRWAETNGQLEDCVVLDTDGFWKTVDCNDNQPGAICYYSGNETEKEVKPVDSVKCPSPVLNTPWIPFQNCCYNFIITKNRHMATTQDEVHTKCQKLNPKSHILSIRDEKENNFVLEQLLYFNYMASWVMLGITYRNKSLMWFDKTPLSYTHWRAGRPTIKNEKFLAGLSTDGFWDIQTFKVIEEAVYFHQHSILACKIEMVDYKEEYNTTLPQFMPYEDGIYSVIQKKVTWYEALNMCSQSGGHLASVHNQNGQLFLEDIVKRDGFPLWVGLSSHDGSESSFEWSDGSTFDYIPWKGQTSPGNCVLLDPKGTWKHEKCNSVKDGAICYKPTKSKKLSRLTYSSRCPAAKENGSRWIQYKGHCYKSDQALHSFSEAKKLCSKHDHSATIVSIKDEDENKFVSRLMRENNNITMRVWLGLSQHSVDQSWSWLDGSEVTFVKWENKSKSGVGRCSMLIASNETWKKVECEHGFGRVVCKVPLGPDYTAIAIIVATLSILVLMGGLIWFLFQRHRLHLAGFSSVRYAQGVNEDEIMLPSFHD", "assay": "Immunohistochemistry using monoclonal antibody to LY75", "conditions": "FFPE Triple Negative breast cancer samples", "method": "FFPE slides were deparaffinised in xylene (2×3 minutes) then rehydrated through 1:1 xylene: 100% ethanol (1×3 minutes), 100% ethanol (2×3 minutes), 95% ethanol (1×3 minutes), 70% ethanol (1×3 minutes), 50% ethanol (1×3 minutes), and tap water (1×3 minutes).\nThe LY75 antigen was retrieved using microwave heat, high power until boiling then low power for 10 minutes in 50 mL 1× citrate buffer in a Coplin jar. Slides were then left to cool to room temperature for a further 15 min, then washed in tap water, 3 minutes. Circles were drawn around each tissue section/TMA with a hydrophobic barrier pen and slides were then washed 3 times in PBS, 3 minutes each wash.\nThe primary anti-LY75 antibody was diluted in serum free protein block (SFPB) to obtain a solution with a concentration 20-fold greater than the final desired concentration (20 μg/mL for 1 μg/mL final). The secondary antibody, goat anti-human immunoglobulin G (IgG) antigen-binding fragment (Fab), was prepared similarly in SFPB to create a solution of equal concentration.\nEqual volumes of primary and secondary antibodies were combined in a labelled tube, gently mixed, and incubated for 3 minutes at room temperature, resulting in a primary antibody concentration 10-fold greater than the desired final concentration (10 μg/mL for 1 μg/mL final). […]"}, "[2]": {"biological_target": "T2, LY75 on COLO205 cells (Homo sapiens, UniProt O60449)", "T2 construct": "COLO205 cells (ATCC, catalog #CCL-222) were detached from tissue culture flasks; host or cells: COLO205", "T2 sequence (O60449 28-1722)": "as above", "assay": "Competitive FACS binding analysis", "conditions": "blocking antibody from 250 nM, 3 fold serial dilution, conjugate 1 nM (FIG. 5b)", "method": "COLO205 cells (ATCC, catalog #CCL-222) were detached from tissue culture flasks with Cell Stripper (Cellgro, catalog #MT-25-056CI). Cells were washed and resuspended in FACS buffer (PBS+2% FBS), neutralized with growth media, and counted. Cells were plated at 50,000 cells per well in a V Bottom 96-well plate. Cells were washed once with FACS buffer (PBS (Fisher, catalog #SH30028-03)+2% FBS). An anti-LY75-mAb (Selected from Example 1) or LY75_A1 was added to wells starting at 250 nM and diluted serially 3 fold and applied to the relevant wells for 45 minutes on ice. Test wells that required single or multiple staining steps were left in FACS buffer as appropriate to ensure the final staining was completed simultaneously for all conditions tested. Two wells were left unstained in FACS buffer as controls.\nAfter the incubation with blocking antibody, cells were washed twice in FACS buffer. The cells were resuspended in FACS buffer containing the anti-LY75-mAb conjugated to MCC-DM1 (1 nM) and incubated on ice for 45 minutes. The cells were washed as above and resuspended in FACS buffer plus 1 ug/ml mouse anti-maytansine antibody and incubated in ice for 45 minutes. […] Mean fluorescence intensity of each sample was determined using a Guava EasyCyte Plus HT Flow Cytometer (96 well plate formats) and the raw data was analyzed using the Guava Cytosoft."}, "[3]": {"tested_on": "Contiguous 8mer peptides of LY75 protein", "assay": "Peptide microarray epitope characterization", "type": "binding", "conditions": "1 μg/mL LY75_A1, scale 1-65535", "method": "The peptide microarray analysis was performed by LC Sciences, Houston TX, in brief the method comprised the following steps:—Contiguous 8mer peptides of LY75 protein having one amino acid overlap spanning residues 216 to 1666 of the full length LY75 protein were synthesized and immobilized on a microarray chip. The chip comprised three panels such that the experiment was performed in triplicate. The microarray was addressed with LY75_A1 to identify the peptides to which the antibody bound. The binding assay was performed under the following conditions:—\nThe microarray comprising the contiguous peptides in triplicate was washed with 1 mL of binding buffer at 4° C. for 20 min. It was then incubated with 1 μg/mL LY75_A1 in binding buffer (pH 7.0) at 4° C. for 2 hrs. The array was again washed with 0.5 mL of washing buffer at 4° C. for 30 min then incubated with 25 ng/ml anti-human IgG Alexa 647 conjugate in binding buffer (pH 7.0) at 4° C. for 1 hr. The array was again washed with 0.5 mL of washing buffer at 4° C. for 30 min. The array was then Scanned at 635 nm and PMT 500 and the signal Intensity was recorded. The peptide was classed as detectable if it was present in at least ⅔ legal duplicates. The average signal intensity of the replicates was reported as the final signal intensity. Results"}}}
{"molecule": "B1", "values": [{"measurement": "sections exhibiting robust (+++) staining", "setting": "[1]", "value": 55, "unit": "%"}, {"measurement": "sections showing positive staining", "setting": "[1]", "value": 77, "unit": "%"}, {"measurement": "blocking of binding of anti-LY75-mAb-MCC-DM1", "setting": "[2]", "value": "unable to block binding of anti-LY75-mAb-MCC-DM1"}, {"measurement": "average signal for all spots on the array", "setting": "[3]", "value": "about 885"}, {"measurement": "maximum signal seen for binding", "setting": "[3]; background cut off 3000", "value": 25000}]}
